Reference: publication PMC8028046 (2021)

Target: amyloid-beta fibrils (Homo sapiens, UniProt P05067)
Assay: SPR

Sequence of amyloid-beta fibrils (P05067 672-713): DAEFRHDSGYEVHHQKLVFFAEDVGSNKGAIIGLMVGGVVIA

Kd: ~130 nM
B1: proSP-C BRICHOS BRICHOS (protein)
chain: TATFSIGSTGLVVYDYQQLLIAYKPAPGTCCYIMKIAPESIPSLEALTRKVHNFQMECSLQAKPAVPTSKLGQAEGRDAGSAPSGGDPAFLGMAVSTLCGEVPLYYI
